± gives the uncertainty stated by the source.
B1: Peripheral plasma membrane protein CASK, residues 488 to 569; numbered along this chain, O14936 (parent)
chain: VRLVQFQKNTDEPMGITLKMNELNHCIVARIMHGGMIHRQGTLHVGDEIREINGISVANQTVEQLQKMLREMRGSITFKIVP

Variants of: B1
Experiment: abundance fitness (aPCA) (normalised: wild type 0, dead -1); higher = more abundant; growth selection in yeast, the domain comes from the species named
Settings: Homo sapiens
M68T gave an abundance fitness of -0.039 ± 0.03.
M68H gave an abundance fitness of -0.019 ± 0.04.
M68I showed an abundance fitness of -0.068 ± 0.053.
Work on M68C yielded an abundance fitness of -0.026 ± 0.033.
For M68L, the abundance fitness was -0.032 ± 0.024.
Variant M68Y has an abundance fitness of -0.045 ± 0.051.
M68K gave an abundance fitness of 0 ± 0.031.
M68N showed an abundance fitness of -0.012 ± 0.051.
In the case of M68D, the abundance fitness is reported as 0.054 ± 0.04.
Work on M68G yielded an abundance fitness of -0.048 ± 0.024.
With M68S the abundance fitness was -0.004 ± 0.026.
Work on M68F yielded an abundance fitness of -0.028 ± 0.058.
M68Q gave an abundance fitness of -0.014 ± 0.033.
M68W showed an abundance fitness of -0.049 ± 0.025.
M68P gave an abundance fitness of -0.647 ± 0.06.
With M68E the abundance fitness was -0.038 ± 0.029.
M68V showed an abundance fitness of -0.026 ± 0.024.
Variant M68A has an abundance fitness of -0.02 ± 0.025.
M68R showed an abundance fitness of 0.002 ± 0.021.
With E63M the abundance fitness was -0.13 ± 0.031.
Work on E63W yielded an abundance fitness of -0.123 ± 0.027.
E63Q showed an abundance fitness of -0.009 ± 0.032.
In the case of E63N, the abundance fitness is reported as -0.043 ± 0.065.
Work on E63V yielded an abundance fitness of -0.098 ± 0.023.
In the case of E63R, the abundance fitness is reported as -0.121 ± 0.021.
E63S showed an abundance fitness of -0.035 ± 0.028.
E63Y gave an abundance fitness of -0.079 ± 0.071.
E63T gave an abundance fitness of -0.109 ± 0.03.
Variant E63L has an abundance fitness of -0.092 ± 0.026.
Variant L65V has an abundance fitness of 0.025 ± 0.025.
With L65P the abundance fitness was -1.02 ± 0.11.
Work on L65M yielded an abundance fitness of -0.057 ± 0.035.
For L65Q, the abundance fitness was -0.33 ± 0.039.
For L65D, the abundance fitness was -1.07 ± 0.17.
Work on L65H yielded an abundance fitness of -0.402 ± 0.067.
Work on L65S yielded an abundance fitness of -0.183 ± 0.031.
Work on L65K yielded an abundance fitness of -0.878 ± 0.081.
L65C showed an abundance fitness of -0.048 ± 0.036.
In the case of L65N, the abundance fitness is reported as -0.318 ± 0.069.
For L65G, the abundance fitness was -0.817 ± 0.047.
For L65W, the abundance fitness was -0.049 ± 0.028.
Work on L65T yielded an abundance fitness of 0.006 ± 0.031.
For L65R, the abundance fitness was -0.449 ± 0.026.
In the case of L65A, the abundance fitness is reported as -0.166 ± 0.027.
For L65E, the abundance fitness was -0.889 ± 0.067.
For L65F, the abundance fitness was -0.23 ± 0.063.
In the case of M72C, the abundance fitness is reported as 0.005 ± 0.03.
In the case of M72K, the abundance fitness is reported as -0.072 ± 0.032.
In the case of M72F, the abundance fitness is reported as 0.039 ± 0.038.
M72H gave an abundance fitness of -0.009 ± 0.046.
With M72T the abundance fitness was -0.022 ± 0.031.
Work on M72I yielded an abundance fitness of 0.036 ± 0.042.
With M72P the abundance fitness was -0.244 ± 0.045.
In the case of M72N, the abundance fitness is reported as -0.114 ± 0.046.
Work on M72E yielded an abundance fitness of -0.085 ± 0.028.
For M72V, the abundance fitness was -0.008 ± 0.023.
Variant M72Q has an abundance fitness of -0.05 ± 0.03.
Work on M72G yielded an abundance fitness of -0.077 ± 0.02.
For M72D, the abundance fitness was -0.182 ± 0.034.
M72A showed an abundance fitness of 0.022 ± 0.024.
In the case of M72R, the abundance fitness is reported as -0.14 ± 0.021.
Work on M72S yielded an abundance fitness of 0.007 ± 0.026.
Work on E71S yielded an abundance fitness of -0.013 ± 0.029.
For E71R, the abundance fitness was -0.008 ± 0.022.
With E71K the abundance fitness was 0.004 ± 0.037.
E71C gave an abundance fitness of -0.022 ± 0.034.
E71H gave an abundance fitness of -0.002 ± 0.048.
Variant E71N has an abundance fitness of -0.044 ± 0.063.
In the case of E71I, the abundance fitness is reported as -0.036 ± 0.061.
In the case of E71L, the abundance fitness is reported as -0.074 ± 0.028.
With E71Q the abundance fitness was -0.051 ± 0.035.
Variant E71M has an abundance fitness of -0.053 ± 0.034.
Variant E71D has an abundance fitness of 0.007 ± 0.046.
With E71V the abundance fitness was -0.034 ± 0.025.
E71G showed an abundance fitness of 0.006 ± 0.022.
With E71Y the abundance fitness was 0.017 ± 0.051.
Variant E71F has an abundance fitness of 0.013 ± 0.051.
Work on E71T yielded an abundance fitness of -0.036 ± 0.034.
In the case of E71A, the abundance fitness is reported as -0.03 ± 0.025.
Work on L69W yielded an abundance fitness of -0.308 ± 0.029.
L69C showed an abundance fitness of -0.093 ± 0.035.
L69F showed an abundance fitness of -0.101 ± 0.048.
With L69R the abundance fitness was -1 ± 0.049.
Variant L69E has an abundance fitness of -0.537 ± 0.058.
L69G gave an abundance fitness of -0.443 ± 0.027.
With L69T the abundance fitness was -0.097 ± 0.027.
Variant L69D has an abundance fitness of -0.73 ± 0.073.
L69P gave an abundance fitness of -0.944 ± 0.086.
With L69Y the abundance fitness was -0.357 ± 0.06.
In the case of L69I, the abundance fitness is reported as -0.08 ± 0.055.
Variant L69Q has an abundance fitness of -0.594 ± 0.045.
For L69V, the abundance fitness was -0.038 ± 0.027.
Work on L69K yielded an abundance fitness of -0.9 ± 0.074.
L69H gave an abundance fitness of -0.777 ± 0.097.
With L69A the abundance fitness was -0.355 ± 0.026.
L69N gave an abundance fitness of -0.609 ± 0.086.
L69M gave an abundance fitness of -0.029 ± 0.033.
For R70Q, the abundance fitness was -0.023 ± 0.031.
For R70C, the abundance fitness was -0.029 ± 0.03.
Work on R70P yielded an abundance fitness of -0.229 ± 0.031.
In the case of R70N, the abundance fitness is reported as -0.024 ± 0.041.
For R70D, the abundance fitness was 0.038 ± 0.035.
Work on R70Y yielded an abundance fitness of -0.039 ± 0.049.
R70H gave an abundance fitness of 0.02 ± 0.04.
For R70V, the abundance fitness was -0.018 ± 0.023.
With R70K the abundance fitness was -0.02 ± 0.031.
Variant R70L has an abundance fitness of 0 ± 0.024.
R70A showed an abundance fitness of 0.012 ± 0.024.
Work on R70E yielded an abundance fitness of 0.016 ± 0.028.
Variant R70M has an abundance fitness of -0.019 ± 0.031.
For R70S, the abundance fitness was -0.015 ± 0.023.
Variant R70T has an abundance fitness of -0.02 ± 0.03.
R70I showed an abundance fitness of -0.078 ± 0.038.
R70F showed an abundance fitness of 0.002 ± 0.042.
Work on R70G yielded an abundance fitness of 0.006 ± 0.022.
In the case of Q64C, the abundance fitness is reported as -0.004 ± 0.028.
Work on Q64F yielded an abundance fitness of 0.007 ± 0.037.
In the case of Q64D, the abundance fitness is reported as 0.007 ± 0.039.
Q64W gave an abundance fitness of -0.093 ± 0.026.
Q64R showed an abundance fitness of -0.066 ± 0.021.
In the case of Q64T, the abundance fitness is reported as -0.025 ± 0.027.
Q64M showed an abundance fitness of -0.042 ± 0.028.
Variant Q64E has an abundance fitness of -0.008 ± 0.026.
For Q64P, the abundance fitness was -0.334 ± 0.032.
In the case of Q64I, the abundance fitness is reported as 0.003 ± 0.042.
Work on Q64S yielded an abundance fitness of -0.021 ± 0.023.
In the case of Q64V, the abundance fitness is reported as -0.061 ± 0.021.
Q64G showed an abundance fitness of -0.064 ± 0.022.
Work on Q64Y yielded an abundance fitness of 0.005 ± 0.038.
With Q64K the abundance fitness was -0.018 ± 0.029.
In the case of Q64N, the abundance fitness is reported as -0.025 ± 0.043.
In the case of Q64L, the abundance fitness is reported as -0.08 ± 0.023.
In the case of Q66E, the abundance fitness is reported as 0.018 ± 0.029.
Q66K showed an abundance fitness of -0.128 ± 0.034.
In the case of Q66A, the abundance fitness is reported as -0.04 ± 0.023.
In the case of Q66Y, the abundance fitness is reported as -0.038 ± 0.051.
With Q66M the abundance fitness was -0.012 ± 0.03.
In the case of Q66G, the abundance fitness is reported as -0.038 ± 0.021.
Q66W gave an abundance fitness of -0.228 ± 0.027.
In the case of Q66C, the abundance fitness is reported as -0.055 ± 0.032.
Work on Q66H yielded an abundance fitness of -0.043 ± 0.039.
In the case of Q66S, the abundance fitness is reported as -0.012 ± 0.025.
For Q66L, the abundance fitness was -0.094 ± 0.024.
For Q66I, the abundance fitness was -0.094 ± 0.04.
Q66F showed an abundance fitness of -0.236 ± 0.049.
Q66T gave an abundance fitness of -0.012 ± 0.027.
Variant Q66N has an abundance fitness of -0.016 ± 0.047.
Variant Q66R has an abundance fitness of -0.104 ± 0.02.
With Q66P the abundance fitness was -0.521 ± 0.034.
For Q66V, the abundance fitness was -0.141 ± 0.024.
In the case of K67A, the abundance fitness is reported as -0.022 ± 0.028.
Variant K67W has an abundance fitness of -0.119 ± 0.032.
With K67C the abundance fitness was 0.013 ± 0.035.
K67M showed an abundance fitness of -0.029 ± 0.034.
For K67H, the abundance fitness was 0.029 ± 0.057.
With K67T the abundance fitness was 0.001 ± 0.032.
Variant K67V has an abundance fitness of 0.002 ± 0.026.
In the case of K67Y, the abundance fitness is reported as -0.064 ± 0.047.
With K67F the abundance fitness was -0.023 ± 0.052.
K67D gave an abundance fitness of 0.02 ± 0.038.
K67N showed an abundance fitness of 0.003 ± 0.057.
For K67G, the abundance fitness was -0.014 ± 0.024.
K67S gave an abundance fitness of -0.038 ± 0.029.
K67I gave an abundance fitness of -0.06 ± 0.051.
In the case of K67Q, the abundance fitness is reported as -0.054 ± 0.042.
In the case of K67P, the abundance fitness is reported as -0.292 ± 0.04.
Work on K67E yielded an abundance fitness of 0.009 ± 0.032.

From the Human Domainome abundance scans (Beltran et al. 2025)
